PMC9482650, “Quantitative fragmentomics allow affinity mapping of interactomes” (Nature Communications, 2022)

T1: SYNJ2BP, P57105
T1 sequence (P57105 8-110, limits assumed, looked up): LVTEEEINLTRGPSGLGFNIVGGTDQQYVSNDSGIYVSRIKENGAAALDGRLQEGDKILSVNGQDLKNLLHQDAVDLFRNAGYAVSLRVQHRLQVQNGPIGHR

T2: DFNB31_2, Q9P202
T2 sequence (Q9P202 274-371, limits assumed, looked up): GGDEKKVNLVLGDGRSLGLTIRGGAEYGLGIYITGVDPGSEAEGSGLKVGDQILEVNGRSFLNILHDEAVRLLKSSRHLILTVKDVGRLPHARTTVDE

T3: PCLO, Q9Y6V0
T3 sequence (Q9Y6V0 4491-4600, limits assumed, looked up): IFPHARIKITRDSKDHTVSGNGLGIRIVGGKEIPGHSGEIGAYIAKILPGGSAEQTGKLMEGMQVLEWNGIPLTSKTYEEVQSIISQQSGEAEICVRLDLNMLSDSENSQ

T4: MPP2, Q14168
T4 sequence (Q14168 180-250, limits assumed, looked up): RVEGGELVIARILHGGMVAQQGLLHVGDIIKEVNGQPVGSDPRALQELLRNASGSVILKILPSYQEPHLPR

T5: PDZRN3_1, Q9UPQ7
T5 sequence (Q9UPQ7 244-349, limits assumed, looked up): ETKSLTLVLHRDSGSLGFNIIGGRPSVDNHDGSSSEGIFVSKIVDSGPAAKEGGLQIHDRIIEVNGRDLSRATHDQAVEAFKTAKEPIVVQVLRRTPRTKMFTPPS

T6: TX1BP3, O14907
T6 sequence (O14907 10-122, limits assumed, looked up): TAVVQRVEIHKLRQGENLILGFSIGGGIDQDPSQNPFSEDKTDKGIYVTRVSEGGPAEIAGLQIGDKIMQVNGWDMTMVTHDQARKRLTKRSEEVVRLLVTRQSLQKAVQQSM

T7: SNTG1, Q9NSN8
T7 sequence (Q9NSN8 52-150, limits assumed, looked up): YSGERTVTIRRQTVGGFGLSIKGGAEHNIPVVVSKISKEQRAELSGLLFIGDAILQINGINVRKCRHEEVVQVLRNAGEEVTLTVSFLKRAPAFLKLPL

T8: GRIP1_2, Q9Y3R0
T8 sequence (Q9Y3R0 145-248, limits assumed, looked up): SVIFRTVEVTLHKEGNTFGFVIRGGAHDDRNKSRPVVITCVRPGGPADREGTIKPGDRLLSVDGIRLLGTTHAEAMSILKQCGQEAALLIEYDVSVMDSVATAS

T9: LRRC7, Q96NW7
T9 sequence (Q96NW7 1440-1537, limits assumed, looked up): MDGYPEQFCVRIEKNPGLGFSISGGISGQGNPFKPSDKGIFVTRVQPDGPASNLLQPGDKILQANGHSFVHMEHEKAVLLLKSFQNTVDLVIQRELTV

T10: TIAM2, Q8IVF5
T10 sequence (Q8IVF5 885-986, limits assumed, looked up): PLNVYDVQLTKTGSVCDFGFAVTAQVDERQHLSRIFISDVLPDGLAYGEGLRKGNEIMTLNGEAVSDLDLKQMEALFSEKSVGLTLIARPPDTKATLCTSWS

T11: DFNB31_1, Q9P202
T11 sequence (Q9P202 135-233, limits assumed, looked up): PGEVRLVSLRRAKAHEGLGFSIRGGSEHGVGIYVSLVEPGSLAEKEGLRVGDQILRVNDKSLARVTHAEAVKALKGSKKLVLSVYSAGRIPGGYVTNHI

T12: FRMPD1, Q5SYB0
T12 sequence (Q5SYB0 52-145, limits assumed, looked up): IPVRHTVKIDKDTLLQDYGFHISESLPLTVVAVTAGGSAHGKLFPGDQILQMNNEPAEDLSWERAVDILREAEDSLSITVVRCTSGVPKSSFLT

T13: PDZD2_2, O15018
T13 sequence (O15018 329-429, limits assumed, looked up): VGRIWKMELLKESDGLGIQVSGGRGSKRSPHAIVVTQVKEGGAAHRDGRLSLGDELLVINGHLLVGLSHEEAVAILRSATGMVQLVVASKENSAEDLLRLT

T14: PTPN13_1, Q12923
T14 sequence (Q12923 1088-1188, limits assumed, looked up): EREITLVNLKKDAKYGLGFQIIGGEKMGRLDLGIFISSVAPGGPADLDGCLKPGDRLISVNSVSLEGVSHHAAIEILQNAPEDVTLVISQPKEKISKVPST

B1: PLEKHH2, Q8IVE3 (peptide)
chain: SRPTKGPTLL
B2: GJD2, Q9UKL4 (peptide)
chain: RTQSSDSAYV

These binders were tested against GIPC2, Q8TF65 (assay: holdup assay). Conditions: plain residues with an end cap or a label only (N-terminal biotin on a linker: ado-ado).
Sequence of GIPC2, Q8TF65 (Q8TF65 112-203): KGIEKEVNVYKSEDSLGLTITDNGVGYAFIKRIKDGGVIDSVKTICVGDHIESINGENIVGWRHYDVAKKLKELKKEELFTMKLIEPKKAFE
Design: key: below the threshold = too weak to quantify, mostly under pKd 3.1 to 4

pKd | Binder
below the threshold | B1
below the threshold | B2

The binders below were run against DLG5_1, Q8TDM6 (assay: holdup assay). Conditions: plain residues with an end cap or a label only (N-terminal biotin on a linker: ado-ado).
Sequence of DLG5_1, Q8TDM6 (Q8TDM6 617-713): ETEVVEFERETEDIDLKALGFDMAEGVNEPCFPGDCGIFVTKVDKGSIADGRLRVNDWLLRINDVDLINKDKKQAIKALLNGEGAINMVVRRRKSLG
Design: key: below the threshold = too weak to quantify, mostly under pKd 3.1 to 4

pKd | Binder
below the threshold | B1
below the threshold | B2

The binders below were run against FRMPD4, Q14CM0 (assay: holdup assay). Conditions: plain residues with an end cap or a label only (N-terminal biotin on a linker: ado-ado).
Sequence of FRMPD4, Q14CM0 (Q14CM0 67-160): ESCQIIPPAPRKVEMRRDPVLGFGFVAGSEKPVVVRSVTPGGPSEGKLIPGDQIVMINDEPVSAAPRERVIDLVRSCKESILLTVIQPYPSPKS
Design: key: below the threshold = too weak to quantify, mostly under pKd 3.1 to 4

pKd | Binder
3.88 | B1
3.86 | B2

The binders below were run against T1, SYNJ2BP, P57105 (assay: holdup assay). Conditions: plain residues with an end cap or a label only (N-terminal biotin on a linker: ado-ado).
Design: key: below the threshold = too weak to quantify, mostly under pKd 3.1 to 4

pKd | Binder
below the threshold | B1
3.66 | B2

Each binder was assayed against CASK, O14936 (assay: holdup assay). Conditions: plain residues with an end cap or a label only (N-terminal biotin on a linker: ado-ado).
Sequence of CASK, O14936 (O14936 487-570): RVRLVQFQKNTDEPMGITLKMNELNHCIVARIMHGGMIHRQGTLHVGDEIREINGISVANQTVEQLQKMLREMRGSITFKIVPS
Design: key: below the threshold = too weak to quantify, mostly under pKd 3.1 to 4

pKd | Binder
below the threshold | B1
below the threshold | B2

Each binder was assayed against T2, DFNB31_2, Q9P202 (assay: holdup assay). Conditions: plain residues with an end cap or a label only (N-terminal biotin on a linker: ado-ado).
Design: key: below the threshold = too weak to quantify, mostly under pKd 3.1 to 4

pKd | Binder
below the threshold | B1
below the threshold | B2

What follows are binders tested against FRMPD2_3, Q68DX3 (assay: holdup assay). Conditions: plain residues with an end cap or a label only (N-terminal biotin on a linker: ado-ado).
Sequence of FRMPD2_3, Q68DX3 (Q68DX3 1073-1166): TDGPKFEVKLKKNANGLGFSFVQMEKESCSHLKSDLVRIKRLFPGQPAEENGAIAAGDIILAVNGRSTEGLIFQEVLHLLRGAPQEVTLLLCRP
Design: key: below the threshold = too weak to quantify, mostly under pKd 3.1 to 4

pKd | Binder
below the threshold | B1
3.71 | B2

What follows are binders tested against GRIP2_6, Q9C0E4 (assay: holdup assay). Conditions: plain residues with an end cap or a label only (N-terminal biotin on a linker: ado-ado).
Sequence of GRIP2_6, Q9C0E4 (Q9C0E4 648-740): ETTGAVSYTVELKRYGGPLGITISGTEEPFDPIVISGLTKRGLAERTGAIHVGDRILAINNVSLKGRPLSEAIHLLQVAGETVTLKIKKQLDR
Design: key: below the threshold = too weak to quantify, mostly under pKd 3.1 to 4

pKd | Binder
below the threshold | B1
below the threshold | B2

What follows are binders tested against T3, PCLO, Q9Y6V0 (assay: holdup assay). Conditions: plain residues with an end cap or a label only (N-terminal biotin on a linker: ado-ado).
Design: key: below the threshold = too weak to quantify, mostly under pKd 3.1 to 4

pKd | Binder
below the threshold | B1
below the threshold | B2

These binders were tested against T4, MPP2, Q14168 (assay: holdup assay). Conditions: plain residues with an end cap or a label only (N-terminal biotin on a linker: ado-ado).
Design: key: below the threshold = too weak to quantify, mostly under pKd 3.1 to 4

pKd | Binder
below the threshold | B1
below the threshold | B2

These binders were tested against T5, PDZRN3_1, Q9UPQ7 (assay: holdup assay). Conditions: plain residues with an end cap or a label only (N-terminal biotin on a linker: ado-ado).
Design: key: below the threshold = too weak to quantify, mostly under pKd 3.1 to 4

pKd | Binder
3.69 | B1
below the threshold | B2

These binders were tested against T6, TX1BP3, O14907 (assay: holdup assay). Conditions: plain residues with an end cap or a label only (N-terminal biotin on a linker: ado-ado).
Design: key: below the threshold = too weak to quantify, mostly under pKd 3.1 to 4

pKd | Binder
4.01 | B1
below the threshold | B2

What follows are binders tested against T7, SNTG1, Q9NSN8 (assay: holdup assay). Conditions: plain residues with an end cap or a label only (N-terminal biotin on a linker: ado-ado).
Design: key: below the threshold = too weak to quantify, mostly under pKd 3.1 to 4

pKd | Binder
below the threshold | B1
below the threshold | B2

These binders were tested against T8, GRIP1_2, Q9Y3R0 (assay: holdup assay). Conditions: plain residues with an end cap or a label only (N-terminal biotin on a linker: ado-ado).
Design: key: below the threshold = too weak to quantify, mostly under pKd 3.1 to 4

pKd | Binder
below the threshold | B1
below the threshold | B2

These binders were tested against T9, LRRC7, Q96NW7 (assay: holdup assay). Conditions: plain residues with an end cap or a label only (N-terminal biotin on a linker: ado-ado).
Design: key: below the threshold = too weak to quantify, mostly under pKd 3.1 to 4

pKd | Binder
below the threshold | B1
below the threshold | B2

What follows are binders tested against T10, TIAM2, Q8IVF5 (assay: holdup assay). Conditions: plain residues with an end cap or a label only (N-terminal biotin on a linker: ado-ado).
Design: key: below the threshold = too weak to quantify, mostly under pKd 3.1 to 4

pKd | Binder
below the threshold | B1
below the threshold | B2

Each binder was assayed against MAGI1_2, Q96QZ7 (assay: holdup assay). Conditions: plain residues with an end cap or a label only (N-terminal biotin on a linker: ado-ado).
Sequence of MAGI1_2, Q96QZ7 (Q96QZ7 456-580): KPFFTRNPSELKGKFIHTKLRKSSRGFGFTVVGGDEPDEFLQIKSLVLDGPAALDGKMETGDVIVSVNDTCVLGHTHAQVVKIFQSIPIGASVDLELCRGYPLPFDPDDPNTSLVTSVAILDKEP
Design: key: below the threshold = too weak to quantify, mostly under pKd 3.1 to 4

pKd | Binder
4.25 | B1
below the threshold | B2

These binders were tested against T11, DFNB31_1, Q9P202 (assay: holdup assay). Conditions: plain residues with an end cap or a label only (N-terminal biotin on a linker: ado-ado).
Design: key: below the threshold = too weak to quantify, mostly under pKd 3.1 to 4

pKd | Binder
below the threshold | B1
below the threshold | B2

Each binder was assayed against T12, FRMPD1, Q5SYB0 (assay: holdup assay). Conditions: plain residues with an end cap or a label only (N-terminal biotin on a linker: ado-ado).
Design: key: below the threshold = too weak to quantify, mostly under pKd 3.1 to 4

pKd | Binder
below the threshold | B1
below the threshold | B2

Each binder was assayed against T13, PDZD2_2, O15018 (assay: holdup assay). Conditions: plain residues with an end cap or a label only (N-terminal biotin on a linker: ado-ado).
Design: key: below the threshold = too weak to quantify, mostly under pKd 3.1 to 4

pKd | Binder
3.87 | B1
5.15 | B2

What follows are binders tested against T14, PTPN13_1, Q12923 (assay: holdup assay). Conditions: plain residues with an end cap or a label only (N-terminal biotin on a linker: ado-ado).
Design: key: below the threshold = too weak to quantify, mostly under pKd 3.1 to 4

pKd | Binder
below the threshold | B1
below the threshold | B2

These binders were tested against Inadl_3, Q8NI35 (assay: holdup assay). Conditions: plain residues with an end cap or a label only (N-terminal biotin on a linker: ado-ado).
Sequence of Inadl_3, Q8NI35 (Q8NI35 359-469): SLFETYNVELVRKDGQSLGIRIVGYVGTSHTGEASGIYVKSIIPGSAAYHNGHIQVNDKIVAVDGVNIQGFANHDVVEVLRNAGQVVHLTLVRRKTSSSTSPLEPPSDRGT
Design: key: below the threshold = too weak to quantify, mostly under pKd 3.1 to 4

pKd | Binder
below the threshold | B1
below the threshold | B2

What follows are binders tested against SNX27, Q96L92 (assay: holdup assay). Conditions: plain residues with an end cap or a label only (N-terminal biotin on a linker: ado-ado).
Design: key: below the threshold = too weak to quantify, mostly under pKd 3.1 to 4

pKd | Binder
3.76 | B1
4.13 | B2
